# Experimental data taken from the supplement of paper PMC10724198.
# ± gives the standard deviation of the averaged measurements.
# System: Saccharomyces cerevisiae
# Experiment: protein stability index of tFT-peptide fusion (C-terminal peptide) (PSI (0-1 scale)); higher = more stable (slower turnover)
# Details: genetic background: wild type; temperature: 30 C
# 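Also: PSI is a weighted mean of sequencing reads over stability bins, variants kept only with over 10 reads, mCherry proximal and sfGFP distal, peptide attached via GGGS linker.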
row,Sequence,protein stability index
1,PSLGLSIPTPLP,0.6849 ± 0.0046
2,LWFVGVAGFSLV,0.5715 ± 0.004
3,VPDGPAHIPLPL,0.683 ± 0.065
4,GGGLGRVWVKLG,0.716 ± 0.08
5,ALRGSYTSFALA,0.623 ± 0.066
6,ALSTFTGFLRIP,0.55 ± 0.01
7,PRLPHPPPFDSL,0.676 ± 0.016
8,TSPPSLLFAMAR,0.693 ± 0.038
9,CGRRGYIVRTFL,0.658 ± 0.071
10,LPPPPTFPPPRS,0.8307 ± 0.0063
11,PPHSALPLPPSP,0.726 ± 0.039
12,LPPPAPRSHCPL,0.725 ± 0.098
13,KRKEKAKRTKHV,0.641 ± 0.035
14,GWSGWFSRVLRG,0.726 ± 0.039
15,ARGGIGTCSWGG,0.727 ± 0.0095
16,PPAPPPVSPPRP,0.7075 ± 0.0027
17,WGYGRGRVWEIS,0.6137 ± 0.0011
18,KKYETNENNQKK,0.686 ± 0.027
19,PPPPPPPPPPSL,0.746 ± 0.061
20,WSSGLHHLPPSP,0.706 ± 0.091
21,IFRLFAFHENRG,0.679 ± 0.051
22,GSNKWATANKYG,0.6561 ± 0.0033
23,PPSSPPLAPPFL,0.709 ± 0.029
24,KRGYLRTNPLSY,0.7056 ± 0.0061
25,KEARHCAQRKDI,0.546 ± 0.062
26,WGARSRFRWGRS,0.7284 ± 0.0052

row,Sequence,protein stability index
1,YDFHWAYFHSLY,0.7113 ± 0.0035
2,PPCTVKAQRAYD,0.694 ± 0.035
3,CSHSLFASCSSL,0.695 ± 0.021
4,CGWFSVGLMVGG,0.485 ± 0.057
5,VGVSGCVLWYRV,0.692 ± 0.031
6,TGCEVSINSCVE,0.656 ± 0.046
7,IKHKSKKNNCKK,0.744 ± 0.052
8,MWRWRAHVDRFR,0.6831 ± 0.0058
9,GLTWFRQARAAL,0.718 ± 0.039
10,TATRIPHTPIPL,0.732 ± 0.037
11,CASLATAPPTSQ,0.728 ± 0.026
12,VPPPALPPCPAF,0.723 ± 0.037
13,PSLPPVPPPPRP,0.71 ± 0.04
14,PLRPPPSPLSPR,0.76 ± 0.055
15,LPLLRWASPRGF,0.685 ± 0.0042
16,LSVLNTQFGFGS,0.6751 ± 0.0054
17,GWGWDAVGVGGP,0.711 ± 0.0074
18,AIIKADKIRRKK,0.6751 ± 0.0028
19,GSWGEGGVAVGG,0.653 ± 0.032
20,LGPLPHDGFSMF,0.761 ± 0.011
21,KPKRIRCDRSPH,0.694 ± 0.019
22,HGERMRKSPREE,0.672 ± 0.11
23,APRPAPRPTPLG,0.706 ± 0.051
24,PPPRPLQPRPRP,0.6502 ± 0.0019
25,SSLTTCFLSFPP,0.668 ± 0.066
26,PPPPFPPPSPPL,0.7147 ± 0.0063

row,Sequence,protein stability index
1,KLKNKRKKIRNR,0.71 ± 0.045
2,RRAPRQKLIPAK,0.6768 ± 0.0055
3,KGEGGEGSMGGA,0.733 ± 0.053
4,PASRIGGALPGG,0.604 ± 0.03
5,FFPPLPATSVPA,0.561 ± 0.1
6,PPLNPPRSPFSP,0.6814 ± 0.0018
7,LICRRVRLSMRG,0.571 ± 0.028
8,SVSPRAPPILPP,0.723 ± 0.058
9,LDSMSRPGATVS,0.668 ± 0.051
10,QCFRYSVFVGRG,0.63 ± 0.019
11,CLRGTYPRLPLT,0.6838 ± 0.0035
12,PPRPPRPPYPPP,0.609 ± 0.024
13,KKKKHKNRKEKQ,0.692 ± 0.019
14,VHLAPPLPPTAT,0.708 ± 0.021
15,GSTSSSFPVSIR,0.727 ± 0.045
16,PPRSPPPTPPLF,0.611 ± 0.01
17,PPPVLSLPPLPV,0.668 ± 0.028
18,EPRPTPLSTPRH,0.671 ± 0.094
19,EWQWGWGGVRRD,0.765 ± 0.032
20,VRPLPAPVQPHP,0.741 ± 0.019
21,PPPLACPSPPVT,0.734 ± 0.12
22,PLHPPSLPPSRS,0.65 ± 0.059
23,LPRRLLFSYPTF,0.647 ± 0.02
24,EGRPEERETTGH,0.587 ± 0.057
25,LRVTPYTPRSYP,0.732 ± 0.058
26,QVVLCCAIDKNT,0.708 ± 0.082

row,Sequence,protein stability index
1,DGVGVPGCGRVG,0.734 ± 0.075
2,SPSSSPLSPFPL,0.713 ± 0.084
3,LPPATMFFISAS,0.558 ± 0.019
4,VCGECGWRRVCL,0.734 ± 0.028
5,SSLLLPALSPSV,0.647 ± 0.077
6,RGEVGKVRGPGT,0.71 ± 0.052
7,ALPSALPPLPPP,0.723 ± 0.055
8,SSRWSMEHMAAW,0.715 ± 0.059
9,LRPLPPRHPPAP,0.624 ± 0.069
10,TECGKVGGGGEA,0.689 ± 0.062
11,PLPIGLRHVKSE,0.696 ± 0.018
12,GPVCVVSGVFTV,0.665 ± 0.072
13,QKISEKNISEKN,0.7063 ± 0.0013
14,GLGRRRGVGGVR,0.709 ± 0.0027
15,NTCGYGRAIKST,0.687 ± 0.016
16,VSGFVAALRIFL,0.657 ± 0.025
17,GWVKWGVGIGRG,0.734 ± 0.079
18,KYINSASLIVYY,0.693 ± 0.06
19,PVLELTLILRRS,0.6304 ± 0.0023
20,LGRGRGGCLGEL,0.5915 ± 0.0034
21,PPLPRLPPPPLP,0.627 ± 0.029
22,LPPPSPPTPPFP,0.691 ± 0.018
23,KKYYCRKLNTKK,0.715 ± 0.017
24,YSLLSAHLVPIA,0.614 ± 0.027
25,QFTSGCPAYLLK,0.678 ± 0.0079
26,FLASFSSFMFYL,0.591 ± 0.016

row,Sequence,protein stability index
1,KGQNLAVTRERE,0.7 ± 0.024
2,GFHSVVMTFLRY,0.63 ± 0.017
3,GGRTRPGGLSRP,0.678 ± 0.035
4,PVDAAPCSPSGL,0.663 ± 0.041
5,LPLLPLPSLSPP,0.713 ± 0.035
6,HPASPPTPPPLP,0.663 ± 0.014
7,STGRLQLGNCLT,0.635 ± 0.015
8,SRRENEVIGGAE,0.725 ± 0.068
9,GDLYWLRNAMSL,0.731 ± 0.012
10,VYHCRLSQHRTL,0.717 ± 0.034
11,RSSPRCPPSPGH,0.7247 ± 0.0018
12,PPPPAPPPLLLP,0.717 ± 0.044
13,PPSPPHIHTYLT,0.6939 ± 0.0011
14,RVGGVVRGERAR,0.671 ± 0.01
15,QWSNSRPVGLTG,0.676 ± 0.017
16,RPPGQVSEALEW,0.68961 ± 3.4e-05
17,KLVVFPYIRPSP,0.709 ± 0.021
18,ALFNEVFRSLLL,0.712 ± 0.054
19,LPPCPPGGRRSR,0.706 ± 0.036
20,TSPTPPPTPCRS,0.6927 ± 0.0067
21,CQNLVCRCCLWI,0.6423 ± 0.0059
22,PSPLPPPPLLPP,0.775 ± 0.28
23,IECLRVVRSRCG,0.6724 ± 0.0023
24,GEFARSTRLAWV,0.682 ± 0.027
25,ITRDFQLWASDL,0.708 ± 0.0083
26,IKVKRRQLKQEK,0.779 ± 0.097

row,Sequence,protein stability index
1,PVLLLLSLPRPL,0.667 ± 0.014
2,HSWSLLFSPSFP,0.658 ± 0.082
3,VGVGRGALRWYG,0.704 ± 0.014
4,SVYLIRSLEALR,0.679 ± 0.019
5,SKSCIVSNVLVY,0.511 ± 0.014
6,PSPPPVLLPFFT,0.711 ± 0.08
7,DPVVSQLSSVPA,0.656 ± 0.041
8,PPPAPPTPPSPP,0.628 ± 0.028
9,PGGRTVLCGTVT,0.651 ± 0.0044
10,PHPLPLPPPVAP,0.711 ± 0.031
11,GVLVGLGWGWGG,0.7135 ± 0.0011
12,SRSSPLYRRGVR,0.679 ± 0.089
13,LVRHCIPIIPPP,0.638 ± 0.026
14,LPTPFKSSPSAA,0.674 ± 0.024
15,AFPSPPATPSSQ,0.645 ± 0.079
16,RFPPFSFAPCLI,0.712 ± 0.035
17,PQAQCTALLTQR,0.659 ± 0.085
18,PPPLPLPSPPPP,0.671 ± 0.089
19,QPLPLPSPPPPA,0.741 ± 0.058
20,GVFASWAWFGVG,0.71 ± 0.046
21,PYLLPPFLPSPP,0.732 ± 0.029
22,YRDSLLATNFFS,0.694 ± 0.056
23,AINAHGISKSYA,0.688 ± 0.019
24,VCTGYIAGGPVC,0.659 ± 0.05
25,VLRSPHYRPRRE,0.673 ± 0.055
26,REWCSGGPCAAS,0.721 ± 0.043

row,Sequence,protein stability index
1,KENKKKKQRKLK,0.774 ± 0.067
2,MKSRQKPESGPR,0.6899 ± 0.0056
3,GRRVVRGWLVRR,0.683 ± 0.095
4,PAPTPAPNPNPH,0.74 ± 0.11
5,PPAASSFRLSSC,0.751 ± 0.1
6,YGVLEYLRDLVF,0.689 ± 0.016
7,SRFLPPSHLLPP,0.738 ± 0.093
8,PHPSPSSPPLLP,0.657 ± 0.043
9,AVGGWRAAGGGG,0.7114 ± 0.0042
10,GGGWRGRRVADF,0.701 ± 0.043
11,HSPSSLPRLRPQ,0.621 ± 0.044
12,LPRPAPPIRPRT,0.74 ± 0.013
13,FGCLGVLGAGRC,0.713 ± 0.034
14,TSKYQENKQKKR,0.7095 ± 0.0057
15,IKKNKKKKNERK,0.675 ± 0.025
16,RDLRGGIADSAG,0.684 ± 0.086
17,IVGRGGRGGWGV,0.685 ± 0.04
18,PPLALPPGPARP,0.738 ± 0.016
19,PHLSPPGLPTTP,0.685 ± 0.055
20,LRLSSFSFSRLS,0.701 ± 0.16
21,PSPPFPPPPPPE,0.717 ± 0.047
22,HDDQIRASQNKL,0.747 ± 0.026
23,VGWRWGRGRAVW,0.728 ± 0.067
24,CPFLFSLFPHSF,0.6646 ± 0.0033
25,GELGGRSWVERG,0.648 ± 0.099
26,PHPPPPPPALTP,0.704 ± 0.037

row,Sequence,protein stability index
1,AGWCKGMWVSLG,0.656 ± 0.036
2,ALGGPPLSPSPH,0.7299 ± 0.007
3,RFGSFVSISRVG,0.603 ± 0.14
4,SLASYFFHVSHS,0.7127 ± 0.0064
5,DFVSQFSFQFGC,0.713 ± 0.066
6,SGVGPGNPPRPG,0.689 ± 0.011
7,KDDHTLMTKYNA,0.643 ± 0.025
8,LRETDGSGQYVR,0.686 ± 0.014
9,FSPRHSPFSVAR,0.803 ± 0.05
10,GAGAAVHRAAPG,0.672 ± 0.029
11,PALPPRLPPPPL,0.602 ± 0.019
12,EVMAIISTRILG,0.647 ± 0.07
13,PPPLPPIPSRPH,0.701 ± 0.019
14,GLGVCGTGIGGV,0.656 ± 0.014
15,PHPPPLTQTPHD,0.704 ± 0.014
16,VGLGEGGGVGEG,0.678 ± 0.079
17,PPPPPSHPPPLS,0.571 ± 0.0097
18,ASCPLHFTDIRP,0.679 ± 0.018
19,CLCHAPLPLAAP,0.642 ± 0.013
20,RCLGSTCRFFTF,0.7 ± 0.065
